Laboratory results taken from patent publication US20200239573A1 (CRESCENDO BIOLOGICS, published 2020).
One block for each binder: values may come before it.

Tests used:
[1] = biological target: human PD-1 on primary human CD4+ T cells (human, UniProt Q15116 21-288); experiment: flow cytometry on PHA-stimulated human CD4+ T cells (live cell gate)
Procedure: Binding of monovalent single domain antibodies and multivalent binding agents to T cells was measured using flow cytometry. […] T-cells were stimulated with 2.5 μg/ml PHA for 2-4 days in RPMI media supplemented with 10% FBS, 2 mM Glutamine, 1× Pen/Strep. Cells were transferred into 96 well plates (75000 per well), blocked for 10 mins with PBS/1% BSA, then incubated with serially diluted VH in staining buffer (PBS/1% BSA) for 1 hour at 4° C. Cells were washed with staining buffer by centrifugation then incubated with 10 μg/ml biotinylated Anti His antibody for 40 mins at 4° C. Cells were washed again then stained with Streptavidin Alexa Fluor-488 (10 μg/ml) and 1:5000 diluted Live Dead near IR stain (Molecular Probes cat no. L10119) for 30 mins at 4° C. After further washing cells were fixed and fluorescence measured by flow cytometry.

[2] = biological target: T1, recombinant human PD-1 Fc chimera (human, UniProt Q15116 25-167); experiment: HTRF inhibition; biotinylated PD-L2-Fc vs Eu-cryptate PD-1-Fc
T1 construct: Bought protein; also called human PD-1-huFc; huPD-1-Fc; not shown: human Fc
T1 sequence (Q15116 25-167 limits assumed, change not shown): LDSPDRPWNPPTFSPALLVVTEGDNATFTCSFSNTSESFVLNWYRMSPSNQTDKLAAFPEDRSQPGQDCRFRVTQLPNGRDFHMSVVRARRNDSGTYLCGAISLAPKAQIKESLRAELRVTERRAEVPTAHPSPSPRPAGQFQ

[3] = biological target: T1, recombinant human PD-1 Fc chimera; experiment: HTRF inhibition; strep-tagged PD-L1 vs PD-1-Fc
Procedure: All samples and reagents were prepared in HTRF assay buffer containing PBS, 0.1% (w/v) BSA and 0.4M Potassium Fluoride. […] Total binding controls containing periplasmic extract sample buffer and non-specific binding controls containing excess untagged competitor were set up on each plate for data normalisation. Time-resolved fluorescent emission at 620 nm and 665 nm was measured following excitation at 337 nm on the BMG PHERAstar plate reader. Data was expressed as a % of the total binding control (% control) after subtraction of the background signal determined from the non-specific binding control wells.

[4] = biological target: T2, human PD-1 expressed on cells (CHO human PD-1 cells) (human, UniProt Q15116 21-288); experiment: FMAT epitope competition on CHO human PD-1 cells; competitor 1 nM 1.1-Strep
T2 construct: also called CHO TREX human PD-1 cell line; CHO PD-1
T2 sequence (Q15116 21-288): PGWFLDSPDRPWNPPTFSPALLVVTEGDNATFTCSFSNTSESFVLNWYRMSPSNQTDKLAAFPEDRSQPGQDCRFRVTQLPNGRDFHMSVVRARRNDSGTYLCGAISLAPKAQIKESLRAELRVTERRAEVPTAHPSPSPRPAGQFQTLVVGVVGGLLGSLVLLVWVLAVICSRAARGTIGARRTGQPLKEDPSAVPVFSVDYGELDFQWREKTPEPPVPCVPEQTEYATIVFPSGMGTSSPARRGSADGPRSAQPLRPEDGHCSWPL
Procedure: (§1) For the epitope competition assay reagents were prepared in FMAT assay buffer. […] Plates were incubated for a minimum of 1.5 hours at room temperature then fluorescence measured in the FL2 (502 nm-537 nm) and FL5 (677-800 nm) channels on the Mirrorball plate reader (TTP) following excitation at 488 nm and 640 nm. Data was expressed as a % of the total binding control (i.e. % control) after subtraction of the background signal determined from the non-specific binding control wells.

[5] = biological target: T2, human PD-1 expressed on cells (CHO …); experiment: FMAT inhibition; 100 pM PD-L1-Fc on CHO human PD-1 cells
Procedure: as §1, with “All” for “For the epitope competition assay”, “reagents and serially diluted VH” for “reagents”, “2” for “a minimum of 1.5”

[6] = biological target: T2, human PD-1 expressed on cells (CHO …); experiment: cell-based or functional assay
[7] = biological target: T2, human PD-1 expressed on cells (CHO …); experiment: FMAT inhibition; 200 pM PD-L2 on CHO human PD-1 cells
Procedure: as §1, with “All” for “For the epitope competition assay”, “reagents and serially diluted VH” for “reagents”, “2” for “a minimum of 1.5”

[8] = biological target: T3, Strep tagged recombinant human PD-1 (human, UniProt Q15116 25-170, limits assumed); experiment: SPR Biacore T200, strep-tagged PD-1 amine-coupled, single cycle kinetics
T3 construct: the whole entry is named; also called strep tagged human PD-1; not shown: Strep tag
T3 sequence (Q15116 25-170 limits assumed): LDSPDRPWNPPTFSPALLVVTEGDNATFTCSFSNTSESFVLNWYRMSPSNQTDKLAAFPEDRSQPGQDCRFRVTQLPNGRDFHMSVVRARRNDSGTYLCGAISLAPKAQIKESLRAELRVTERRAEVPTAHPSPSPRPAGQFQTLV
Procedure: Single cycle kinetics assays were used to study the interaction between human PD-1 with Humabody® on a Biacore T200 instrument (GE Healthcare). Strep tagged recombinant human PD-1 was amine coupled to one flow cell of a CM-5 chip to create a low density surface (14 RU) using standard Biacore reagents. For the reference flow cell, a blank immobilisation was carried out. A five-point, three-fold dilution series of each Humabody® was made with a top concentration of 25 nM. The binding kinetics were followed by flowing the Humabody® over the chip surface in HBS EP+ buffer at a flow rate of 30 μl/min. The contact time for each of the association steps was 180 seconds and the dissociation step was 3300 seconds. The data was fitted to a 1:1 binding model after double reference subtraction using the Biacore T200 Evaluation software.

Chain of human PD-1 on primary human CD4+ T cells (Q15116 21-288): as the sequence (Q15116 21-288) above

B2: Humabody® 1.95 (VHH)
VHH: EVQLVESGGGLVKPGGSLRLSCAASGFTFSDGSMTWMRQAPGKGLEWVSYISSGGGVKFYADSVKGRFTISRDNAKNSLYLQMNSLRAEDTAVYYCAREAPLRLGESPHDAFDISGQGTMVTVSS
notes: human VH single domain antibody
- IC50 [4]: 2 nM
- IC50 [5]: 3.59 nM

B4: Humabody® 1.62 (VHH)
VHH: QVQLVESGGGLVKPGGSLRLSCAASGFTFSDSSMTWMRQAPGKGLEWVSYISSGGAVKFYTDSVKGRFTISRDNAKNSLYLQMNSLRADDTAVYYCAREAPLRLGESPHDAFDISGQGTMVTVSS
notes: as for B2
- Reporter Assay EC50 [6]: 14 nM
- IC50 [7]: 10 nM
- IC50 [5]: 5.7 nM

B5: Humabody® 1.98 (VHH)
VHH: EVQLVESGGGLVKPGGSLRLSCAASGFTFSDKSMTWMRQAPGKGLEWVSYISSGGGVKFYADSVKGRFTISRDNAKNSLYLQMNSLRAEDTAVYYCAREAPLRLGESPHDAFDISGQGTMVTVSS
notes: as for B2
- IC50 [4]: 1.1 nM
- Reporter Assay EC50 [6]: 6.5 nM
- IC50 [5]: 2.08 nM

B6: Humabody® 1.97 (VHH)
VHH: EVQLVESGGGLVKPGGSLRLSCAASGFTFSDISMTWMRQAPGKGLEWVSYISSGGGVKFYADSVKGRFTISRDNAKNSLYLQMNSLRAEDTAVYYCAREAPLRLGESPHDAFDISGQGTMVTVSS
notes: as for B2
- IC50 [4]: 1.7 nM
- IC50 [5]: 3.32 nM

B8: Humabody® 1.13 (VHH)
VHH: EVQLLESGGGLVKPGGSLRLSCAASGFTFSDYTMTWMRQAPGKGLEWVSYISTGGTIKYYTDSVKGRFTISRDNAKNSLYLQMNSLRADDTAVYYCAREAPLRLGESPHDAFDIWGQGTMVTVSS
notes: as for B2
- IC50 [2]: 10 nM
- IC50 [3]: 17 nM

B9: Humabody® 1.91 (VHH)
VHH: EVQLVESGGGLVKPGGSLRLSCAASGFTFSDQSMTWMRQAPGKGLEWVSYISSGGGVKFYADSVKGRFTISRDNAKNSLYLQMNSLRAEDTAVYYCAREAPLRLGESPHDAFDISGQGTMVTVSS
notes: as for B2
- IC50 [4]: 1.4 nM
- IC50 [5]: 3.56 nM

B10: Humabody® 1.4 (VHH)
VHH: QVQLVESGGGLVKPGGSLRLSCAASGFTFSDYYMIWMRQAPGKGLEWVSYISGGGTTKYYTDSVKGRFTISRDNAKNSLYLQMNSLRADDTAVYYCAREAPLRLGETPHDAFDIWGQGTMVTVSS
notes: as for B2
- IC50 [2]: 14 nM
- IC50 [3]: 3.13 nM

B11: Humabody® 1.99 (VHH)
VHH: EVQLVESGGGLVKPGGSLRLSCAASGFTFSDRSMTWMRQAPGKGLEWVSYISSGGGVKFYADSVKGRFTISRDNAKNSLYLQMNSLRAEDTAVYYCAREAPLRLGESPHDAFDISGQGTMVTVSS
notes: as for B2
- IC50 [4]: 1.4 nM
- Reporter Assay EC50 [6]: 4.2 nM
- IC50 [5]: 1.86 nM

B13: Humabody® 1.93 (VHH)
VHH: EVQLVESGGGLVKPGGSLRLSCAASGFTFSDASMTWMRQAPGKGLEWVSYISSGGGVKFYADSVKGRFTISRDNAKNSLYLQMNSLRAEDTAVYYCAREAPLRLGESPHDAFDISGQGTMVTVSS
notes: as for B2
- IC50 [4]: 1.5 nM
- IC50 [5]: 2.12 nM

B14: Humabody® 1.5 (VHH)
VHH: EVQLVESGGGLVKPGGSLRLSCAASGFTFSDYTMTWMRQAPGKGLEWVSYISTGGNTKYYTDSVKGRFTISRDNAKNSLYLQMNSLRADDTAVYYCAREAPLRLGESPHDAFDIWGQGTMVTVSS
notes: as for B2
- IC50 [2]: 22 nM
- IC50 [3]: 2.66 nM

The remaining lines, values ahead:

- EC50 (read off the curve) [1]: ~2 nM
- IC50 [2]: 39 nM
- IC50 [3]: 13 nM
B1: Humabody® 1.2 (VHH)
VHH: EVQLLESGGGLVKPGGSLRLSCAASGFTFSDYTMTWMRQAPGKGLEWVSYISTGGSIKYYTDSVKGRFTISRDNAKNSLYLQMNSLRADDTAVYYCAREAPLRLGESPHDAFDIWGQGTMVTVSS
notes: as for B2

- IC50 [2]: 7.5 nM
- IC50 [3]: 0.913 nM
B3: Humabody® 1.9 (VHH)
VHH: QVQLVESGGGLVKPGGSLRLSCAASGFTFGDYTMTWMRQAPGKGLEWVSYISTGGTIKYYTDSVKGRFTISRDNAKNSLYLQMDSLRADDTAVYYCAREAPLRLGESPHDAFDIWGQGTMVTVSS
notes: as for B2

- IC50 [4]: 1.5 nM
- IC50 [5]: 2.61 nM
B7: Humabody® 1.100 (VHH)
VHH: EVQLVESGGGLVKPGGSLRLSCAASGFTFSDLSMTWMRQAPGKGLEWVSYISSGGGVKFYADSVKGRFTISRDNAKNSLYLQMNSLRAEDTAVYYCAREAPLRLGESPHDAFDISGQGTMVTVSS
notes: as for B2

- IC50 [5]: 1.82 nM
- Kd [8]: 0.0297 nM
- koff [8]: 5.2e-05 s⁻¹
- kon [8]: 1.76e+06 M⁻¹ s⁻¹
B12: Humabody® 1.80 (VHH)
VHH: EVQLVESGGGLVKPGGSLRLSCAASGFTFSDSSMTWMRQAPGKGLEWVSYISSGGGVKFYADSVKGRFTISRDNAKNSLYLQMNSLRAEDTAVYYCAREAPLRLGESPHDAFDISGQGTMVTVSS
notes: as for B2

- Reporter Assay EC50 [6]: 11 nM
- IC50 [7]: 8.5 nM
- IC50 [5]: 5.8 nM
B15: Humabody® 1.65 (VHH)
VHH: QVQLVESGGGLVKPGGSLRLSCAASGFTFSDSSMTWMRQAPGKGLEWVSYISSGGGVKFYADSVKGRFTISRDNAKNSLYLQMNSLRADDTAVYYCAREAPLRLGESPHDAFDISGQGTMVTVSS
notes: as for B2

- IC50 [4]: 1.6 nM
- IC50 [5]: 2.45 nM
- Kd [8]: 0.08 nM
- koff [8]: 0.00012 s⁻¹
- kon [8]: 1.52e+06 M⁻¹ s⁻¹
B16: Humabody® 1.96 (VHH)
VHH: EVQLVESGGGLVKPGGSLRLSCAASGFTFSDTSMTWMRQAPGKGLEWVSYISSGGGVKFYADSVKGRFTISRDNAKNSLYLQMNSLRAEDTAVYYCAREAPLRLGESPHDAFDISGQGTMVTVSS
notes: as for B2

- Reporter Assay EC50 [6]: 12 nM
- IC50 [7]: 6.9 nM
- IC50 [5]: 4.5 nM
B17: Humabody® 1.63 (VHH)
VHH: EVQLVESGGGLVKPGGSLRLSCAASGFTFSDSSMTWMRQAPGKGLEWVSYISSGGGVKFYTDSVKGRFTISRDNAKNSLYLQMNSLRADDTAVYYCAREAPLRLGESPHDAFDISGQGTMVTVSS
notes: as for B2

- IC50 [4]: 1.6 nM
- IC50 [5]: 3 nM
B18: Humabody® 1.90 (VHH)
VHH: EVQLVESGGGLVKPGGSLRLSCAASGFTFSDVSMTWMRQAPGKGLEWVSYISSGGGVKFYADSVKGRFTISRDNAKNSLYLQMNSLRAEDTAVYYCAREAPLRLGESPHDAFDISGQGTMVTVSS
notes: as for B2
